According to publication PMC3526290:

Legend:
[1] = target: Cac2 B domain (Saccharomyces cerevisiae) (UniProt Q04199); conditions: cited from earlier work
[2] = target: Asf1 labeled with Alexa Fluor 532 (*Asf1), full-length (budding yeast) (UniProt P32447); test: native gel or EMSA; labelled protein (*Asf1, 0.5 µM in Figure 1b, or H3/H4*) with Cac2 or CAF-1 titrated or at 20 µM; 10 mM Tris, 1 mM DTT, pH 8.0, 30 min on ice; 0.2x TBE 59:1 native gel on ice; fraction bound from band densities
[3] = target: Asf1 labeled with Alexa Fluor 532 (*Asf1), full-length (budding yeast) (UniProt P32447); test: fluorescence polarisation; fluorescence anisotropy; 10 nM *Asf1 (alone or pre-bound to 20 nM H3/H4) or 100 nM *Asf1^1-169, Cac2 or CAF-1 titrated; 20 mM HEPES, 150 mM NaCl, pH 7.4, 20°C

Sequence of UniProt Q04199 (Q04199 449-468): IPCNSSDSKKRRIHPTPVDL

Substance: Asf1 (from UniProt P32447)
- Kd [1]: 1500 nM

Substance: Chromatin Assembly Factor 1 (CAF-1) complex: Cac1, Cac2, Cac3 (from UniProt Q12495 1-606; Q04199 1-468; P13712 1-422)
- Kd [2]: 280 nM
- Kd [3]: 380 nM
